# Experimental data published in the supplement of paper PMC12042874.
# ± gives the uncertainty stated by the source.
# Assay: amyloid nucleation score (Sup35N fusion, yeast selection) (log enrichment); library NNK2; higher = more nucleation; inactive = no reads after selection
# Method in brief: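 Yeast lacking psi expressed peptides of 20 random codons fused to Sup35N, received 100 μM copper sulfate for 24 hours, and were then grown for 7 days at 30°C on medium lacking adenine and uracil. Illumina sequencing of input and output plasmid inserts provided the reads. Nucleation scores are DiMSum log enrichments of output over input, centred on the mode of non-aggregating sequences. Any sequence with under 100 input reads was excluded.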
row,Substance,amyloid nucleation score
1,AKVWDCGSPKVQYIVARQVV,0.042 ± 0.46
2,YRFRAIVNIYRCDVGFF,6.36 ± 0.075
3,YHYDCYHLLTERKQGELVRT,-0.425 ± 0.35
4,MSVLRSG,0.526 ± 0.66
5,VYWTKWGFLLVSSVKVLSLE,-0.14 ± 1
6,CERLNAPHLHQVRIPKRYNM,0.306 ± 0.64
7,LLSKFF,inactive
8,SYDVRVAKINSPLGG,-0.397 ± 0.79
9,FSVSSLVAVMNNTHLVVSGG,2.34 ± 0.081
10,KYENYLCITFMGCLLGMRSE,inactive
11,ILISRIFIFDNYMIYLCCCG,-0.762 ± 0.79
12,KSIESGRIRK,0.627 ± 0.35
13,FNMVNTILMNGPSCWLQSVP,0.21 ± 0.63
14,EYMTMDELDWWSRQCFGWAQ,1.64 ± 0.42
15,VMSFHWCVVSSVPWDCQACH,3.93 ± 0.1
16,QGLMIVINGSSYYVYVCLKG,1.09 ± 0.12
17,FISMNLEVSN,-0.26 ± 1
18,VVAKAGRSKFSGCSRATAGG,0.609 ± 0.41
19,RYVGRDR,inactive
20,SGTDDLCMVPLGYLLTMRLP,0.7 ± 0.39
21,SRHTIVTGRWLFRDYQSLLW,0.19 ± 1.1
22,VGICFDNRMVTWHLSDRQSP,3.58 ± 0.072
23,MTNMT,1.18 ± 0.61
24,VNNGSMFSRGDWCVVLYPTW,3.45 ± 0.077
25,VLFSRTTSEEDKRSIISMNN,2.17 ± 0.18

row,Substance,amyloid nucleation score
1,GLFRWYNMDNYVQI,-0.604 ± 0.76
2,GRPVMMEMPII,0.512 ± 0.42
3,EGIILFRKDRELTGGRLTNV,-0.145 ± 1.1
4,VCFGEQT,0 ± 0.21
5,TEGRVDPLCDERAILMVFDV,0.768 ± 0.5
6,IHRGWSWMQSRILDVGSR,0.162 ± 0.54
7,YYQSIGLQYSRMKMGCKRND,0.882 ± 0.18
8,GTSFVKFEK,-0.186 ± 0.23
9,DKFMLVSCVYSDNLLVIYSG,inactive
10,TRTQMW,0.739 ± 0.43
11,RTSRVVIKILDPFQFVMLFI,-0.211 ± 0.49
12,TTYSRS,-1.26 ± 0.62
13,ETVFRLFFSYRGVANHVVPG,-0.408 ± 0.63
14,VRANLGAGFRFKSETGDAS,0.861 ± 0.14
15,CLMWVISNSYNECHLGEVGQ,6.56 ± 0.087
16,RSSLQSPWGYPKPMWLRSCA,1.06 ± 0.33
17,HLCGC,inactive
18,AYMNWCTLKMRR,-0.063 ± 0.28
19,GDRYSSYSRFEEY,0.565 ± 0.19
20,ICILDYND,-1.15 ± 0.76
21,QSWSRQSATGPWTLVCQRRP,0.69 ± 0.51
22,SGWELYP,1.91 ± 0.11
23,ASYQRSCILRRFTFVSCILI,1.56 ± 0.17
24,LVLTSLQHGQFVVVVSVVW,0.543 ± 0.31
25,NRKEQVVPLHVRSPI,1.13 ± 0.17

row,Substance,amyloid nucleation score
1,FFFNYLSCLRNAVNWFNRGM,inactive
2,TTDCSNDLSAILVCLSHGAL,-0.19 ± 1
3,CRTRGMVRLYGTRRK,inactive
4,GGTPRSINVF,0.201 ± 0.8
5,YCYVCDVNVYVYLTAIGNKF,7.43 ± 0.085
6,SHCTLKNLV,-0.27 ± 1.1
7,PFAWANKYTIQPINPYRGAA,-0.552 ± 0.41
8,ARDNQMARDI,2.83 ± 0.15
9,TVSVNLYNFVLQTSY,4.55 ± 0.069
10,SMTDRFPSIIYRECILWVTW,-0.035 ± 0.76
11,TCVCDIYSSTVVSFLHSNRV,5.44 ± 0.1
12,MNIVVYVHLGVSAQVSMAHR,8.407 ± 0.041
13,VVYVVHFYFEYVGNVVARAK,inactive
14,VYAVDTTW,0.237 ± 0.29
15,TDQDT,0.516 ± 0.32
16,IRWGNRLTLERGFFKPFY,inactive
17,SPLHKKVYKRLRLTSDTRQI,-0.516 ± 0.55
18,MLIIKVLCSMCIVIFLTLIC,2.55 ± 0.18
19,WKHMSRR,0.639 ± 0.66
20,RKSVWYCDIFIIEYPDFSYS,2.07 ± 0.1
21,TRALDPVSVSRISVRQQPLA,1.12 ± 0.2
22,YRLFWFNC,1.74 ± 0.11
23,IAKPSVRHMYSFHVVDKTGH,inactive
24,VCVFTDLGCRY,-0.493 ± 1.1
25,WLNLARDWKWKSDINFWKVH,inactive

row,Substance,amyloid nucleation score
1,MKSSPA,-0.395 ± 0.32
2,LGCICMR,4.09 ± 0.071
3,SVLIAQLDAAYGISVVRSPG,0.264 ± 0.18
4,GFFTPPRVRNNTSEGDVK,-0.418 ± 1.1
5,KALCLYNVVRKKRCT,0.152 ± 0.5
6,SERFDRAY,-1.2 ± 0.42
7,ILISVRNYIKSEKSRNSYHK,7.673 ± 0.03
8,FIFVVMVMVWFWTGLCLSYN,inactive
9,FRVRRGLASGR,1.28 ± 0.3
10,LREGCVTLLS,0.27 ± 0.36
11,GFLGCESREKEECSIKERLC,-0.515 ± 1
12,IGKSCRLRA,0.609 ± 0.46
13,NLSRRCKIADWSIHCATIHE,-0.235 ± 1.1
14,SCPIRTL,0.424 ± 0.43
15,PGYPVTFLRRDAYAVREFEF,-0.1 ± 1
16,FDIPCSFVPVYHIKAFLCRM,-0.353 ± 0.79
17,TQINEVLL,-0.722 ± 0.28
18,GSTVKYWCMPGSSLLLHCVY,0.611 ± 0.66
19,CDRLELRN,0.065 ± 0.43
20,PHCCCRTSHLSPLNQRDKGS,0.11 ± 0.77
21,QFVGFVRWFVWEWGLLVID,0.706 ± 0.81
22,IPFRFDMSRSFISSTFTVRI,-0.533 ± 0.63
23,HKLCGYIYIRVIRSWKWYKQ,-0.306 ± 0.63
24,FCSGLYHVYAD,2.28 ± 0.15
25,LFYGNHWAPASWIWN,2.34 ± 0.15

row,Substance,amyloid nucleation score
1,LLINLVPFWLILRHDYLIKF,0.959 ± 0.74
2,DFDGRRHSDNDLSWNSNF,-1.42 ± 1.1
3,KRNVLRVTSCHKEYSVGSVP,0.739 ± 0.22
4,NQYLSMRTAHSGEVYQPLVF,0.859 ± 0.8
5,HEGIDVSMPHQDRTAADNLA,0.409 ± 0.53
6,WFMFCNLGLGTPIGMITLRS,-1.16 ± 0.56
7,LLDACHLGNWTAGNGYYDRV,-0.531 ± 1.1
8,FLYTCF,0.509 ± 0.25
9,TCAGIV,0.408 ± 0.41
10,ADCFWAIDYPTWAYRIYGSH,inactive
11,VTLGVWRPAFFAFWTPRKQY,-0.35 ± 1.1
12,VFWGM,-1.35 ± 0.49
13,HVDIRLWTFNRSRFIGVFGV,2.75 ± 0.079
14,FDVSWMARVELSIM,-0.018 ± 0.33
15,FSMVT,0.057 ± 0.63
16,NSIAYPACLNKWGWIKFSSY,-1.41 ± 0.29
17,RIRSCTLMWT,0.807 ± 0.22
18,KLGFWVGSWLSSRSVDCSCM,1.33 ± 0.35
19,DVSGISDARMGKPSQWYGWY,0.182 ± 0.38
20,FHMRFMMVFIRLKTRTKLIL,-0.797 ± 0.42
21,WAKSFHTALWASLMRGRKLH,-0.44 ± 0.54
22,WNVMHI,0.358 ± 0.64
23,TCFHR,0.285 ± 0.55
24,RGRCNVVSSLTFTIRSLWTV,1.59 ± 0.13
25,RITFV,-0.64 ± 0.76

row,Substance,amyloid nucleation score
1,SYFEMAYEWYCMNWMGEVIK,9.197 ± 0.054
2,TFFNNWMALKYRNYQFIMSG,inactive
3,MVRDIEFTLKGRTMG,-0.032 ± 1.1
4,NCEVFNGDALWRSFTGRYLM,0.042 ± 1.1
5,TGRHKVTDLRIWILWSYTGA,-0.398 ± 0.63
6,HKFIPAVVSCMQGNMKNYWS,-0.166 ± 0.5
7,VCFVM,-0.016 ± 0.79
8,GYMYCISATCRDLSKGRTGT,-0.221 ± 0.39
9,NGQFGTSHGMVGTGVSLRG,-0.012 ± 0.65
10,SLYMFLVSALVQSYLLV,-1.4 ± 0.45
11,TFGESSIVNNPYFLHESGHS,0.813 ± 0.48
12,RLSRYFLRFWWAYDYDSN,0.101 ± 0.54
13,RAGFSSAPLVEGRSLTQRCR,inactive
14,IYFFSVF,inactive
15,REVYWLMCTA,0.747 ± 0.47
16,VWIAKKGQRSRFQLRSGMCA,0.641 ± 0.74
17,AKCPIRNRSLSCIQWSGGAK,0.398 ± 0.27
18,PDVTGKELHF,3.42 ± 0.071
19,PVLDGHCSWGGLSTAEETDR,0.29 ± 0.29
20,DSASVRVVIADEDLSAVVRA,1.72 ± 0.27
21,YVNFIVFTDMIWDS,4.94 ± 0.09
22,GLYHFRVITASKSQMEGFLM,-0.018 ± 1.1
23,KNKTL,0.576 ± 0.46
24,KLGIDRGTVCLWLSV,0.401 ± 0.14
25,QMICFHSWLGGSSLTVFHHC,3.84 ± 0.12

row,Substance,amyloid nucleation score
1,SLEGLLRPRKLVSCIDT,inactive
2,CLSPW,0.202 ± 0.46
3,VSGCV,-0.865 ± 0.54
4,SNGKYG,1.32 ± 0.26
5,FVDVKHDVVKAMRLWFR,-0.632 ± 1.1
6,RIGVSSFVEEHSRIGLGRAP,5.57 ± 0.066
7,IWSYSSFGVD,-0.064 ± 1.1
8,SGLFFTHTFRKLVYRLRSTK,-1.08 ± 1.1
9,RCYINFGIHGLWMLHVCFWG,-0.849 ± 1.1
10,YIRLQAIQSEVERSSVPVIK,2.16 ± 0.083
11,MYTYLINVNVSDAFTLYGLE,4.43 ± 0.056
12,PGCSIDWILYRRTAYGTISD,-0.619 ± 0.36
13,IFVLNKQNYLRIYNVPPLLI,5.667 ± 0.05
14,GIFTTWNRISRRLCLRVHYP,-0.497 ± 0.34
15,CCWAVWDLRGFTRGWRLRRG,0.509 ± 0.16
16,SLWNIVRCRVENDSSGTQGF,-0.414 ± 0.5
17,RYYVSEPLGDFAWFFPGDHR,inactive
18,GLNIGVCLIMHEDRTNSGGK,8.011 ± 0.032
19,SVAFILVPNEWLVKRAASSG,-0.264 ± 0.45
20,YGMQLFC,3.95 ± 0.082
21,SLVLV,0.803 ± 0.47
22,MVQPS,0.462 ± 0.5
23,CDYEYGCQNKRGFRMLLKSW,inactive
24,FYDSVKEISVLSCVWGDILE,7.235 ± 0.029
25,WLNHYAQLIHRARGHVWNMY,-0.685 ± 0.63
